According to the supplement of paper PMC9112550, “Optimization of the antimicrobial peptide Bac7 by deep mutational scanning” (BMC Biology, 2022):

Tested on: Escherichia coli TOP10
Experiment: shrunken log2 fold change of peptide-encoding DNA abundance (4.5 h post-induction vs induction); higher = less antimicrobial activity (less host growth inhibition)
Details: time post-induction: 4.5 h; library: site-saturation at positions 5, 18, 19, 20
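Also: peptides expressed intracellularly from a pBAD plasmid library in pooled LB shake-flask culture, induced with 0.3% L-arabinose, DNA abundance read by NGS, three biological replicates, DESeq2 with apeglm shrinkage.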

| Sequence | shrunken log2 fold change |
| --- | --- |
| RRIRRRPPRLPRPRPRPAESPRP | 0.256 |
| RRIRRRPPRLPRPRPRPPQIPRP | 0.908 |
| RRIRERPPRLPRPRPRPNPEPRP | -0.0358 |
| RRIRVRPPRLPRPRPRPCIMPRP | -0.514 |
| RRIRPRPPRLPRPRPRPKKTPRP | -0.107 |
| RRIRFRPPRLPRPRPRPFQMPRP | -0.647 |
| RRIRWRPPRLPRPRPRPKMCPRP | -0.0087 |
| RRIRARPPRLPRPRPRPCGNPRP | 0.0115 |
| RRIRFRPPRLPRPRPRPDVLPRP | -0.0865 |
| RRIRYRPPRLPRPRPRPTPCPRP | -0.122 |
| RRIRFRPPRLPRPRPRPLIGPRP | -0.106 |
| RRIRFRPPRLPRPRPRPKNNPRP | -0.504 |
| RRIRDRPPRLPRPRPRPLVHPRP | 0.265 |
| RRIRLRPPRLPRPRPRPRECPRP | -0.104 |
| RRIRIRPPRLPRPRPRPFPPPRP | -0.353 |
| RRIRFRPPRLPRPRPRPAYRPRP | -0.0676 |
| RRIRWRPPRLPRPRPRPVALPRP | 0.459 |
| RRIRFRPPRLPRPRPRPTWDPRP | 0.0928 |
| RRIRKRPPRLPRPRPRPTYVPRP | -0.201 |
| RRIRARPPRLPRPRPRPIIWPRP | -0.419 |
| RRIRPRPPRLPRPRPRPGWEPRP | 0.462 |
| RRIRHRPPRLPRPRPRPADSPRP | -0.039 |
| RRIRWRPPRLPRPRPRPQKHPRP | -0.15 |
| RRIRQRPPRLPRPRPRPLSLPRP | -0.0321 |
| RRIRSRPPRLPRPRPRPYPHPRP | -0.227 |

| Sequence | shrunken log2 fold change |
| --- | --- |
| RRIRIRPPRLPRPRPRPKDVPRP | -0.141 |
| RRIRVRPPRLPRPRPRPHYTPRP | -0.169 |
| RRIRNRPPRLPRPRPRPHVSPRP | -0.00166 |
| RRIRARPPRLPRPRPRPHIAPRP | -0.111 |
| RRIRWRPPRLPRPRPRPMYPPRP | -0.245 |
| RRIRHRPPRLPRPRPRPHMAPRP | -0.0236 |
| RRIRIRPPRLPRPRPRPKWGPRP | -0.00761 |
| RRIRQRPPRLPRPRPRPWSRPRP | 0.00812 |
| RRIRNRPPRLPRPRPRPVYHPRP | -0.0311 |
| RRIRLRPPRLPRPRPRPKNYPRP | -0.458 |
| RRIRDRPPRLPRPRPRPAMAPRP | 0.575 |
| RRIRSRPPRLPRPRPRPSHYPRP | -1.44 |
| RRIRGRPPRLPRPRPRPADDPRP | 0.563 |
| RRIRSRPPRLPRPRPRPRLPPRP | 0.315 |
| RRIRMRPPRLPRPRPRPEIPPRP | 0.497 |
| RRIRGRPPRLPRPRPRPALIPRP | 0.737 |
| RRIRRRPPRLPRPRPRPYSCPRP | -0.0958 |
| RRIRLRPPRLPRPRPRPLYHPRP | -0.648 |
| RRIRRRPPRLPRPRPRPCHMPRP | -0.237 |
| RRIRLRPPRLPRPRPRPWDTPRP | 0.0949 |
| RRIRWRPPRLPRPRPRPCRKPRP | -0.0352 |
| RRIRSRPPRLPRPRPRPDNPPRP | -0.0934 |
| RRIRWRPPRLPRPRPRPKPVPRP | 0.006 |
| RRIRMRPPRLPRPRPRPDGEPRP | 0.857 |
| RRIRCRPPRLPRPRPRPWTDPRP | -0.055 |

| Sequence | shrunken log2 fold change |
| --- | --- |
| RRIRDRPPRLPRPRPRPSLMPRP | 0.175 |
| RRIRYRPPRLPRPRPRPRDIPRP | -0.0839 |
| RRIRHRPPRLPRPRPRPEACPRP | -0.0115 |
| RRIRRRPPRLPRPRPRPWSHPRP | -0.121 |
| RRIRWRPPRLPRPRPRPEQTPRP | -0.0026 |
| RRIRMRPPRLPRPRPRPKLEPRP | 1.14 |
| RRIRMRPPRLPRPRPRPVQEPRP | 0.051 |
| RRIRDRPPRLPRPRPRPNTHPRP | -0.292 |
| RRIRWRPPRLPRPRPRPLFDPRP | 0.0264 |
| RRIRPRPPRLPRPRPRPLMMPRP | -0.204 |
| RRIRRRPPRLPRPRPRPVGHPRP | 0.0496 |
| RRIRRRPPRLPRPRPRPQTKPRP | 0.161 |
| RRIRERPPRLPRPRPRPEQDPRP | -0.0751 |
| RRIRGRPPRLPRPRPRPGCAPRP | 1.33 |
| RRIRARPPRLPRPRPRPIRGPRP | 0.0372 |
| RRIRSRPPRLPRPRPRPPNPPRP | 0.273 |
| RRIRTRPPRLPRPRPRPMYFPRP | -0.53 |
| RRIRQRPPRLPRPRPRPKAAPRP | -0.0496 |
| RRIRKRPPRLPRPRPRPMETPRP | -0.0146 |
| RRIRVRPPRLPRPRPRPSDDPRP | -0.417 |
| RRIRVRPPRLPRPRPRPQRPPRP | 0.306 |
| RRIRARPPRLPRPRPRPHLIPRP | -0.0757 |
| RRIRPRPPRLPRPRPRPKPVPRP | 0.154 |
| RRIRHRPPRLPRPRPRPGRMPRP | -0.313 |
| RRIRHRPPRLPRPRPRPPHGPRP | 0.389 |

| Sequence | shrunken log2 fold change |
| --- | --- |
| RRIRDRPPRLPRPRPRPHGCPRP | -0.00865 |
| RRIRMRPPRLPRPRPRPYQKPRP | -0.0182 |
| RRIRCRPPRLPRPRPRPRSYPRP | -0.233 |
| RRIRSRPPRLPRPRPRPEGTPRP | 0.123 |
| RRIRSRPPRLPRPRPRPMTLPRP | -0.103 |
| RRIRKRPPRLPRPRPRPLHAPRP | 0.449 |
| RRIRRRPPRLPRPRPRPHCGPRP | -0.0836 |
| RRIRTRPPRLPRPRPRPTDTPRP | -0.0527 |
| RRIRHRPPRLPRPRPRPVEQPRP | 0.0184 |
| RRIRCRPPRLPRPRPRPVDRPRP | 0.0626 |
| RRIRKRPPRLPRPRPRPLEQPRP | 0.0352 |
| RRIRMRPPRLPRPRPRPGVHPRP | 0.0493 |
| RRIRYRPPRLPRPRPRPKDTPRP | -0.392 |
| RRIRKRPPRLPRPRPRPPTMPRP | 0.412 |
| RRIRKRPPRLPRPRPRPKMFPRP | -0.146 |
| RRIRIRPPRLPRPRPRPKINPRP | -0.881 |
| RRIRPRPPRLPRPRPRPINEPRP | -0.54 |
| RRIRLRPPRLPRPRPRPWWQPRP | -0.179 |
| RRIRERPPRLPRPRPRPLSQPRP | -0.406 |
| RRIRIRPPRLPRPRPRPPCGPRP | -0.239 |
| RRIRFRPPRLPRPRPRPMNGPRP | -0.0885 |
| RRIRKRPPRLPRPRPRPHPSPRP | 0.163 |
| RRIRARPPRLPRPRPRPLEIPRP | 0.0728 |
| RRIRSRPPRLPRPRPRPPISPRP | -0.0261 |
| RRIRKRPPRLPRPRPRPSWHPRP | -0.0776 |

| Sequence | shrunken log2 fold change |
| --- | --- |
| RRIRTRPPRLPRPRPRPGYQPRP | -0.0553 |
| RRIRLRPPRLPRPRPRPFPYPRP | 0.015 |
| RRIRERPPRLPRPRPRPDERPRP | 0.109 |
| RRIRERPPRLPRPRPRPLEWPRP | -0.0018 |
| RRIRPRPPRLPRPRPRPMFMPRP | 0.0765 |
| RRIRTRPPRLPRPRPRPVCCPRP | -0.254 |
| RRIRTRPPRLPRPRPRPFRSPRP | -0.144 |
| RRIRLRPPRLPRPRPRPIVYPRP | -0.43 |
| RRIRERPPRLPRPRPRPVKFPRP | -0.02 |
| RRIRWRPPRLPRPRPRPYMWPRP | 0.00889 |
| RRIRSRPPRLPRPRPRPCPNPRP | -0.209 |
| RRIRDRPPRLPRPRPRPNKIPRP | -0.457 |
| RRIRHRPPRLPRPRPRPCFYPRP | -0.356 |
| RRIRERPPRLPRPRPRPDMMPRP | 0.0556 |
| RRIRKRPPRLPRPRPRPPSKPRP | 0.541 |
| RRIRFRPPRLPRPRPRPHRTPRP | -0.18 |
| RRIRQRPPRLPRPRPRPDGEPRP | 0.117 |
| RRIRERPPRLPRPRPRPFKLPRP | -0.42 |
| RRIRTRPPRLPRPRPRPPYFPRP | 0.202 |
| RRIRQRPPRLPRPRPRPWWTPRP | -0.01 |
| RRIRFRPPRLPRPRPRPAQKPRP | 0.166 |
| RRIRPRPPRLPRPRPRPGHSPRP | -0.0921 |
| RRIRCRPPRLPRPRPRPNSSPRP | -0.366 |
| RRIRPRPPRLPRPRPRPVQMPRP | 0.0287 |
| RRIRLRPPRLPRPRPRPTREPRP | 0.794 |
